US20160264649A1

Legend:
Test in all cases: cell-based or functional assay
[1] = biological target: HIV-1 94UG103 Env (HIV-1)
[2] = biological target: HIV-1 92RW008 Env (HIV-1)
[3] = biological target: HIV-1 MGRM-A-012 Env (HIV-1)
[4] = biological target: HIV-1 MGRM-A-003 Env (HIV-1)
[5] = biological target: HIV-1 92RW024 Env (HIV-1)
[6] = biological target: HIV-1 MGRM-A-004 Env (HIV-1)
[7] = biological target: HIV-1 MGRM-A-005 Env (HIV-1)
[8] = biological target: HIV-1 MGRM-A-009 Env (HIV-1)
[9] = biological target: HIV-1 92UG037 Env (HIV-1)
[10] = biological target: HIV-1 MGRM-A-008 Env (HIV-1)
[11] = biological target: HIV-1 92UG031 Env (HIV-1)
[12] = biological target: HIV-1 92RW021 Env (HIV-1)
[13] = biological target: HIV-1 93UG077 Env (HIV-1)
[14] = biological target: HIV-1 MGRM-A-014 Env (HIV-1)
[15] = biological target: HIV-1 94KE105 Env (HIV-1)
[16] = biological target: HIV-1 MGRM-A-001 Env (HIV-1)
[17] = biological target: HIV-1 MGRM-A-006 Env (HIV-1)
[18] = biological target: HIV-1 92RW026 Env (HIV-1)
[19] = biological target: HIV-1 MGRM-A-007 Env (HIV-1)
[20] = biological target: HIV-1 MGRM-A-013 Env (HIV-1)
[21] = biological target: HIV-1 92RW009 Env (HIV-1)
[22] = biological target: HIV-1 MGRM-A-011 Env (HIV-1)
[23] = biological target: HIV-1 Env of isolate MG RM-C-028 (subtype C) (HIV-1)
[24] = biological target: HIV-1 Env of isolate MGRM-D-026 (subtype D) (HIV-1)
[25] = biological target: HIV-1 Env of isolate MGRM-Chronic-B-002 (subtype B) (HIV-1)
[26] = biological target: HIV-1 Env of isolate TRO.11 (subtype B) (HIV-1)
[27] = biological target: HIV-1 Env of pseudovirus isolate MGRM-G-011 (subtype G) (HIV-1)
[28] = biological target: HIV-1 Env of pseudovirus isolate MGRM-G-027 (subtype G) (HIV-1)
[29] = biological target: HIV-1 Env of isolate 93WR029 (subtype A) (HIV-1)
[30] = biological target: HIV-1 Env of isolate MGRM-D-028 (subtype D) (HIV-1)
[31] = biological target: HIV-1 Env of isolate 93IN905 (subtype C) (HIV-1)
[32] = biological target: HIV-1 Env of isolate MGRM-Chronic-B-018 (subtype B) (HIV-1)
[33] = biological target: HIV-1 Env of isolate MGRM-Chronic-B-004 (subtype B) (HIV-1)
[34] = biological target: HIV-1 Env of isolate VLGCA1 (subtype A) (HIV-1)
[35] = biological target: HIV-1 Env of isolate MGRM-F1-006 (subtype F) (HIV-1)
[36] = biological target: HIV-1 MGRM-F1-013 Env (HIV-1)
[37] = biological target: HIV-1 Env of isolate MGRM-F1-004 (subtype F) (HIV-1)
[38] = biological target: HIV-1 Env of isolate 93MW959 (subtype C) (HIV-1)
[39] = biological target: HIV-1 Env of isolate MG RM-C-022 (subtype C) (HIV-1)
[40] = biological target: HIV-1 Env of isolate PVO.4 (subtype B) (HIV-1)
[41] = biological target: HIV-1 Env of isolate MGRM-D-008 (subtype D) (HIV-1)
[42] = biological target: HIV-1 Env of isolate MGRM-D-012 (subtype D) (HIV-1)
[43] = biological target: HIV-1 Env of isolate 92WR021 (subtype A) (HIV-1)
[44] = biological target: HIV-1 Env of isolate MGRM-AE-003 (subtype AE) (HIV-1)
[45] = biological target: HIV-1 Env of isolate MG RM-C-023 (subtype C) (HIV-1)
[46] = biological target: HIV-1 Env of isolate MGRM-D-004 (subtype D) (HIV-1)
[47] = biological target: HIV-1 Env of isolate JRCSF (subtype B) (HIV-1) (UniProt P20871)
[48] = biological target: HIV-1 Env of isolate MGRM-F1-018 (subtype F) (HIV-1)
[49] = biological target: HIV-1 Env of isolate MGRM-D-013 (subtype D) (HIV-1)
[50] = biological target: HIV-1 Env of isolate MG RM-C-024 (subtype C) (HIV-1)

Sequence of 1443_C16 (PG16) (TCN-116) (antibody) (VH): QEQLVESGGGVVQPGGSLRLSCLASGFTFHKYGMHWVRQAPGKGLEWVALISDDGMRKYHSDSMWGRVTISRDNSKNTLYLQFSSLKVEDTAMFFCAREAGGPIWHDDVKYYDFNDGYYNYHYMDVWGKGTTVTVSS
Sequence of 1443_C16 (PG16) (TCN-116) (antibody) (VL): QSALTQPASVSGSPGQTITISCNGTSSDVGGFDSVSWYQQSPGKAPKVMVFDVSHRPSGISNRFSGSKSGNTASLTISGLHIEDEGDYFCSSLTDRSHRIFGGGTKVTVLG

1443_C16 (PG16) (TCN-116) (antibody) gave a neutralization IC50 [1] of 0.04 µg/mL, a neutralization IC50 [2] of 0.002 µg/mL and a neutralization IC50 [3] of 20.7 µg/mL. It also gave a neutralization IC50 [4] of 2.65 µg/mL, a neutralization IC50 [5] of 0.08 µg/mL and a neutralization IC50 [6] of 0.04 µg/mL. The neutralization IC50 [7] was 0.09 µg/mL, the neutralization IC50 [8] was 0.01 µg/mL and the neutralization IC50 [9] was 0.01 µg/mL. The neutralization IC50 [10] was greater than 50 µg/mL, the neutralization IC50 [11] was 0.43 µg/mL and the neutralization IC50 [12] was 0.11 µg/mL. It also gave a neutralization IC50 [13] greater than 50 µg/mL, a neutralization IC50 [14] of 20.3 µg/mL and a neutralization IC50 [15] of 6.13 µg/mL. It also gave a neutralization IC50 [16] greater than 50 µg/mL, a neutralization IC50 [17] greater than 50 µg/mL and a neutralization IC50 [18] of 0.03 µg/mL. The neutralization IC50 [19] was 5.91 µg/mL, the neutralization IC50 [20] was 0.09 µg/mL and the neutralization IC50 [21] was 0.11 µg/mL. For the same substance, the neutralization IC50 [22] was 0.24 µg/mL.
With 1496_C09 (PG9) (TCN-109) (antibody) the IC50 (µg/mL), pseudovirus neutralization [23] was 0.067 µg/mL, the IC50 (pseudovirus neutralization) [24] was 23.7 µg/mL and the IC50 [25] was 3.44 µg/mL. It also gave an IC50 (µg/mL), pseudovirus neutralization [26] of 16.9 µg/mL, an IC50 [27] of 0.335 µg/mL and an IC50 [28] of 0.007 µg/mL. It also gave an IC50 (pseudovirus neutralization) [29] of 0.69 µg/mL, an IC50 (pseudovirus neutralization) [30] of 20.2 µg/mL and an IC50 (µg/mL), pseudovirus neutralization [31] of 0.035 µg/mL. It also gave an IC50 [32] of 0.216 µg/mL, an IC50 [33] of 0.533 µg/mL and an IC50 (pseudovirus neutralization) [34] of 0.069 µg/mL. The IC50 (pseudovirus neutralization) [35] was 7.25 µg/mL, the IC50 (pseudovirus neutralization) [36] was 0.56 µg/mL and the IC50 (pseudovirus neutralization) [37] was 0.175 µg/mL. For the same substance, the IC50 (µg/mL), pseudovirus neutralization [38] was 0.054 µg/mL, the IC50 (µg/mL), pseudovirus neutralization [39] was 0.346 µg/mL and the IC50 [40] was 24.8 µg/mL. It also gave an IC50 (pseudovirus neutralization) [41] of 11.5 µg/mL, an IC50 (pseudovirus neutralization) [42] of 16.2 µg/mL and an IC50 (pseudovirus neutralization) [43] of 0.027 µg/mL. The IC50 (pseudovirus neutralization) [44] was 0.044 µg/mL, the IC50 (µg/mL), pseudovirus neutralization [45] was 0.614 µg/mL and the IC50 (pseudovirus neutralization) [46] was 0.06 µg/mL. For the same substance, the IC50 (µg/mL), pseudovirus neutralization [47] was 0.003 µg/mL, the IC50 (pseudovirus neutralization) [48] was 0.019 µg/mL and the IC50 (pseudovirus neutralization) [49] was 0.021 µg/mL. The IC50 (µg/mL), pseudovirus neutralization [50] was 0.227 µg/mL, the neutralization IC50 [1] was 0.24 µg/mL and the neutralization IC50 [2] was 0.01 µg/mL. For the same substance, the neutralization IC50 [3] was 11.2 µg/mL, the neutralization IC50 [4] was 0.65 µg/mL and the neutralization IC50 [5] was 0.18 µg/mL. The neutralization IC50 [8] was 0.03 µg/mL, the neutralization IC50 [11] was 3.08 µg/mL and the neutralization IC50 [12] was 0.05 µg/mL. For the same substance, the neutralization IC50 [14] was 0.62 µg/mL, the neutralization IC50 [15] was 29.6 µg/mL and the neutralization IC50 [18] was 0.27 µg/mL. The neutralization IC50 [19] was 0.37 µg/mL, the neutralization IC50 [20] was 0.16 µg/mL and the neutralization IC50 [21] was 0.03 µg/mL.
PGV04 (antibody) showed an IC50 (µg/mL), pseudovirus neutralization [23] of 0.149 µg/mL, an IC50 (pseudovirus neutralization) [24] of 1.76 µg/mL and an IC50 [25] of 0.142 µg/mL. It also gave an IC50 (µg/mL), pseudovirus neutralization [26] of 0.121 µg/mL, an IC50 [27] of 0.78 µg/mL and an IC50 [28] of 0.125 µg/mL. The IC50 (pseudovirus neutralization) [29] was 0.54 µg/mL, the IC50 (pseudovirus neutralization) [30] was 1.01 µg/mL and the IC50 (µg/mL), pseudovirus neutralization [31] was 0.332 µg/mL. For the same substance, the IC50 [32] was 0.164 µg/mL, the IC50 [33] was 0.047 µg/mL and the IC50 (pseudovirus neutralization) [34] was 0.024 µg/mL. The IC50 (pseudovirus neutralization) [35] was greater than 50 µg/mL, the IC50 (pseudovirus neutralization) [37] was 0.58 µg/mL and the IC50 (µg/mL), pseudovirus neutralization [38] was greater than 50 µg/mL. For the same substance, the IC50 (µg/mL), pseudovirus neutralization [39] was 18.3 µg/mL, the IC50 [40] was 0.454 µg/mL and the IC50 (pseudovirus neutralization) [41] was 3.56 µg/mL. The IC50 (pseudovirus neutralization) [42] was 0.125 µg/mL, the IC50 (pseudovirus neutralization) [43] was 0.038 µg/mL and the IC50 (pseudovirus neutralization) [44] was 6.4 µg/mL. For the same substance, the IC50 (µg/mL), pseudovirus neutralization [45] was 0.128 µg/mL, the IC50 (pseudovirus neutralization) [46] was 43.2 µg/mL and the IC50 (µg/mL), pseudovirus neutralization [47] was 0.078 µg/mL. It also gave an IC50 (pseudovirus neutralization) [48] of 0.027 µg/mL, an IC50 (pseudovirus neutralization) [49] of 0.088 µg/mL and an IC50 (µg/mL), pseudovirus neutralization [50] greater than 50 µg/mL.
VRC01 (antibody) showed an IC50 [23] of 0.319 µg/mL, an IC50 (pseudovirus neutralization) [24] of 0.435 µg/mL and an IC50 [25] of 0.117 µg/mL. It also gave an IC50 [26] of 0.186 µg/mL, an IC50 [27] of 0.065 µg/mL and an IC50 [28] of 0.36 µg/mL. It also gave an IC50 (pseudovirus neutralization) [29] of 1.57 µg/mL, an IC50 (pseudovirus neutralization) [30] of 0.377 µg/mL and an IC50 [31] of 0.138 µg/mL. For the same substance, the IC50 [32] was 0.328 µg/mL, the IC50 [33] was 0.055 µg/mL and the IC50 (pseudovirus neutralization) [34] was 0.163 µg/mL. The IC50 (pseudovirus neutralization) [35] was 2.86 µg/mL, the IC50 (pseudovirus neutralization) [37] was 0.305 µg/mL and the IC50 [38] was 0.053 µg/mL. For the same substance, the IC50 [39] was 13 µg/mL, the IC50 [40] was 0.218 µg/mL and the IC50 (pseudovirus neutralization) [41] was 0.854 µg/mL. For the same substance, the IC50 (pseudovirus neutralization) [42] was 0.216 µg/mL, the IC50 (pseudovirus neutralization) [43] was 0.066 µg/mL and the IC50 (pseudovirus neutralization) [44] was 0.685 µg/mL. It also gave an IC50 [45] of 0.077 µg/mL, an IC50 (pseudovirus neutralization) [46] of 1.25 µg/mL and an IC50 [47] of 0.164 µg/mL. For the same substance, the IC50 (pseudovirus neutralization) [48] was 0.032 µg/mL, the IC50 (pseudovirus neutralization) [49] was 0.087 µg/mL and the IC50 [50] was 3.4 µg/mL.
